Reference: the nanobody polyreactivity screen of Harvey et al. (2022)

Assay: yeast display, Sf9 membrane polyspecificity reagent, FACS + sequencing; frameworks hold sequencing errors
How it was run: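 After 36–48 hours of galactose induction, yeast (Saccharomyces cerevisiae BJ5465) displaying a synthetic nanobody library were stained at 4 °C for 1 hour with 10% biotinylated, detergent-solubilized Sf9 membrane reagent. Streptavidin microbeads enriched the stained cells before FACS sorting into low and high (top ~1%) gates on anti-HA and streptavidin fluorescence. Each clone's polyreactivity label reflects its gate of origin.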

Row | Sequence | polyreactivity (PSR sort gate)
1 | QVQLVESGGGLVQAGGSLRLSCAASGSIFVYNAMGWYRQAPGKERELVASITWSGGRTYYADSVKGRFTNSRDNAQNTVYLQMNSLKPEDTAVYYCAADSPRGYDYWGQGTQVTVSS | high polyreactivity
2 | QVQLVESGGGLVQAGGSLRLSCAASGSIFVYVMGWYRQAPGKERELVAAISSGGSTDYADSVKGRFTISRDNAQNTVYLQMNSLKPEDTAVYYCAADTDTGYTYYYWGQGTQVTVSS | low polyreactivity
3 | QVQLVESGGGLVQAGGSLRLSCAASGSIFVYYAMGWYRQAPGKERELVAAINFRGGNTYYADSVKGRFTISRDNAKNTVYLQMNSLKPEDTAVYYCAADYRWKWIGGARYDYWGQGTQVTVSS | low polyreactivity
4 | QVQLVESGGGLVQAGGSLRLSCAASGSIFVYYAMGWYRQAPGKERELVAAISQRGGRTYYADSVKGRFTISRDNAKNTVYLQMNSLKPEDTAVYYCAADSGPASAGYYYWGQGTQVTVSS | high polyreactivity
5 | QVQLVESGGGLVQAGGSLRLSCAASGSIFVYYAMGWYRQAPGKERELVAAISSGGRTYYADSVKGRFTISRDNAKNTVSLQMNSLKPEDTAVYYCNAVHYFQYGYYSWGQGTQVTVSS | high polyreactivity
6 | QVQLVESGGGLVQAGGSLRLSCAASGSIFVYYAMGWYRQAPGKERELVAAITRRGGSTYYADSVKGRFTISRDNAKNTVYLQMNSLKPEDTAVYYCNSYTSRQYGLEYWGQGTQVSVSS | high polyreactivity
7 | QVQLVESGGGLVQAGGSLRLSCAASGSIFVYYAMGWYRQAPGKERELVAAITSGGSTNYADSVKGRFTISRDNAQNTVYLQMNSLKPEDTAVYYCAVVTRAHPEDYWGQGTQVTVSS | high polyreactivity
8 | QVQLVESGGGLVQAGGSLRLSCAASGSIFVYYAMGWYRQAPGKERELVAGISTSGGSTYYADSVKGRFTISRDNAKNTVYLQMNSLKPEDTAVYYCAAVDSFGYYKLYEYWGQGTQVTVSS | high polyreactivity
9 | QVQLVESGGGLVQAGGSLRLSCAASGSIFVYYAMGWYRQAPGKERELVATITNDGSTYADSVKGRFTISRDNAKNTVYLQMNSLKPEDTAVYYCAAKIPSDRTIYDYWGQGTQVTVSS | low polyreactivity
10 | QVQLVESGGGLVQAGGSLRLSCAASGSIFVYYTMGWYRKAPGKERELVASIDSGDRTNYADSVKGRFTISRDNAKNTVYLQMNSLKPEDTAVYYCAARHSRSWRFNSRRRYGYWGQGTQVTVSS | high polyreactivity
11 | QVQLVESGGGLVQAGGSLRLSCAASGSIFWDNAMGWYRQAPGKERELVAAITSSGDTTYYADSVKGRFTISRDNAKNTVYVQMNSLKPEDTAVYYCAKVFGPTDYLTGTFKGDYWGQGTQVTVSS | low polyreactivity
12 | QVQLVESGGGLVQAGGSLRLSCAASGSIFWGNAMGWYRQAPGKERELVAAIDWSGGSTYYADSVKGRFTISRDNAKNTVYLQMNSLKPEDTAVYYCAASGRYDYDYWGQGTQVTVSS | low polyreactivity
13 | QVQLVESGGGLVQAGGSLRLSCAASGSIFWGNAMGWYRQAPGKERELVAAITSGGSTNYADSVKGRFTISRDNAKNTVYLQMNSLKPEDTAVYYCIADVARVPFEFDYWGQGTQVTVSS | low polyreactivity
14 | QVQLVESGGGLVQAGGSLRLSCAASGSIFWGNDMGWYRQAPGKERELVAGIRNSGTSTYYADSVKGRFTISRDNAKNTVYVQMNSLKPEDTAVYDCAAADGRQYSRYYWRGHDYWGQGTQVTVSS | low polyreactivity
15 | QVQLVESGGGLVQAGGSLRLSCAASGSIFWINAMGWYRQAPGKERELVADIDVSGGSTYYADSVKGRFTISRDNAKNTVYLQMNSLKPEDTAVYYCAADDYWAYLYYKTSEYDYWGQGTQVTVSS | low polyreactivity
16 | QVQLVESGGGLVQAGGSLRLSCAASGSIFWIYAMGWYRQAPGKERELVATITRRGGSTYYADSVKGRFTISRDNAKNTGYLQMNSLKPEDSAVYYCATEPGYTYLTSYKYDYWGQGTQVTVSS | low polyreactivity
17 | QVQLVESGGGLVQAGGSLRLSCAASGSIFWLYAMGWYRQAPGKERELVARINWSGGNTYYADSVKGRFTISRDNAKNTDYLQMNSLKPEDTAVYYCNARSQYRMNYWGQGTQVTGSS | low polyreactivity
18 | QVQLVESGGGLVQAGGSLRLSCAASGSIFWNNAMGWYRQAPGKERELVAGISGGSTNYADSVKGRFTISRDNAKNTVYLQMNSLKPEDTAVYYCATERQWESRFEAYDYWGQGTQVTVSS | low polyreactivity
19 | QVQLVESGGGLVQAGGSLRLSCAASGSIFWPYAMGWYRQAPGKERELVAAISSSGTSTYYADSVKGRFTISRDNAKNTVYLQMNSLKPEDTAVYYCAKELFTYPYEYWGQGTQVTVSS | low polyreactivity
20 | QVQLVESGGGLVQAGGSLRLSCAASGSIFWQNAMGWYRQAPGKERELVAAISRNGGSTNYADSVKGRFTISRDNAKNTVYLQMNSLKPEDTAVYYCAAVGTVSRTVGYNYWGQGTQVTVSS | high polyreactivity
21 | QVQLVESGGGLVQAGGSLRLSCAASGSIFWQNTMGWYRQAPGKERELVATISSGDSTYYADSVKGRFTISRDNAKNTVYLQMNSLKPEDTAVYYCNTTEHKYVSSFEYGYWGQGTQVTVSS | low polyreactivity
22 | QVQLVESGGGLVQAGGSLRLSCAASGSIFWQYAMGWYRQAPGKERELVAAINWSGDTTYYADSVKGRFTISRDNAKNTVYLQMNSLKPEDTAVYFCAAVGGVSYGGSPKTHAGEDYWGQGTQVTVSS | low polyreactivity
23 | QVQLVESGGGLVQAGGSLRLSCAASGSIFWSNAMGWYRQAPGKELELVAAITTSDGSTYYADSVKGRFTISRDNAKNTVYLQMNSLKPEDNAVYYCAADASTWYTEEYWGQGTQVTVSS | low polyreactivity
24 | QVQLVESGGGLVQAGGSLRLSCAASGSIFWSYAMGWYRQAPGKERELVAAINWSGGRTYYADSVKGRFTISRDNAKNTVYLQMNSLKPEDTAVYYCNAPVHTAQGDEYDYWGQGTQVTVSS | high polyreactivity
25 | QVQLVESGGGLVQAGGSLRLSCAASGSIFWSYDMGWYRQAPGKERELVATITSGDSTYYADSVKGRFTISRDNAKNTVYLQMNSLKPEDTAVYYCNVDVSVEVAYWGQGTQVTVSS | low polyreactivity
26 | QVQLVESGGGLVQAGGSLRLSCAASGSIFWVYAMGWYRQAPGKERELVAAISSSGGRTYYADSVKGRFTISRDNAKNTVYLQMNSVKPEVTAVYYCAARWKTGYNYWGQGTQVTVSS | high polyreactivity
27 | QVQLVESGGGLVQAGGSLRLSCAASGSIFWWNAMGWYRQAPGKERELVAAINWSTGRTYYADSVKGRFTISRDNAKNTVYLQMNSLKPEDTAVYYCNADSKSSYYWYLWYNYWGQGTQVTVSS | low polyreactivity
28 | QVQLVESGGGLVQAGGSLRLSCAASGSIFWWNTMGWYRQAPGKERELVAAITFSGGSTYYADSVKGRFTISRDNAKNTVYLQMNSLKPEDTAVYYCNADGWVSVRGTWSDGGYWGQGTQVTVSS | low polyreactivity
29 | QVQLVESGGGLVQAGGSLRLSCAASGSIFWYNAMGWYRQAPGKERELVAAINWSGGSTFYADSVKGRFTISRDNAKNTVFLQMNSLKPEDTAVYYCAADDWYTGYDYWGHGTQVTVSS | high polyreactivity
30 | QVQLVESGGGLVQAGGSLRLSCAASGSIFWYNAMGWYRQAPGKERELVARISSSGDSTYYADSVKGRFTISRDNAKNTVYLQINSLKPEDTAVYYCNVDYWSISESSWGYYTSYDYWGQGTQVTVSS | high polyreactivity
